# Experimental data reported in US20260085338.
# What was measured:
# [1] = tested on: 67PfluR64PP RNA polymerase
substance,measurement,setting,value
67PfluR64PP lysozyme,"reduction of msfGFP output upon lysozyme induction (P. putida, 4 mM Rha)",[1],67PfluR64PP (-51%)
same,"reduction of leaky msfGFP expression caused by the phi15 RNAP (P. putida, 4 mM Rha)",phi15 RNA polymerase,The 67PfluR64PP lysozyme reduced the leaky expression by 58%
PPPL-1 lysozyme,"reduction of msfGFP output upon lysozyme induction (P. putida, 4 mM Rha)",PPPL-1 RNA polymerase,PPPL-1 (-39%)
Pf-10 lysozyme,"reduction of msfGFP output upon lysozyme induction (P. putida, 4 mM Rha)",Pf-10 RNA polymerase,Pf-10 (-80%)
phi15 lysozyme (G3RQ),"dynamic range of the system (fold induction), lysozyme integrated in PP4305, P. putida SEM11",phi15 RNA polymerase,"the dynamic range of the system increased from 33 to 107- and 70-fold, respectively"
same,"dynamic range of the system (fold induction), lysozyme integrated in PP5388, P. putida SEM11",phi15 RNA polymerase,"the dynamic range of the system increased from 33 to 107- and 70-fold, respectively"
phi15 lysozyme (wild-type),"reduction of msfGFP output upon lysozyme induction (P. putida, 4 mM Rha)",phi15 RNA polymerase,The phi15 lysozyme caused only a -30% reduction of the msfGFP output
